{
  "source": "patent US20040115786A1",
  "about": "(priority 2001, published 2004)",
  "molecules": {"B1": {"name": "ArsR: E. coli arsenic-binding, DNA-binding ars operon repressor protein, SEQ ID NO:2, expressed from codon-optimized synthetic gene (protein)", "chain": "MLQLTPLQLFKNLSDETRLGIVLLLREMGELCVCDLCMALDQSQPKISRHLAMLRESGILLDRKQGKWVHYRLSPHIPSWAAQIIEQAWLSQQDDVQVIARKLASVNCSGSSKAVCI"}},
  "assay": "Stability of purified ArsR protein to freeze thaw",
  "type": "physicochemical",
  "settings": "post-dialysis, 0.48 mg/ml in 50 mM Hepes pH 8.5, 200 mM NaCl, 15 mM DTT, 5% glycerol",
  "experimental": "Dialysis was performed next. Glycerol was added to bring the pool to a concentration of 5% glycerol by volume. The pool was then diluted to approximately 1 mg/ml with the dialysis buffer listed below. The faction pool was dialyzed in 3500 Molecular Weight Cutoff tubing placed in 1 liter consisting of 50 mM Hepes, pH 8.5, 200 mM NaCl, 1 mM EDTA, 15 mM DTT, and 5% glycerol for five hours. The dialysis tubing was then placed in 4 liters of 50 mM Hepes, pH 8.5, 200 mM NaCl, 15 mM DTT, and 5% glycerol overnight to remove any EDTA. The pool was then clarified by centrifugation, the protein concentration was determined, and a SDS-PAGE was run of the results.\nThe final product of a pilot production (5 g whole cell pellet from 34 g total) yielded a protein concentration of 480 μg/ml (in a 0.05% polysorbate solution for stabilization of the protein and reduction of non-specific binding to the sensor surface). The total volume for this experiment was 3.6 ml, which yielded a total protein yield of 1.75 mg. This was dissolved in a buffer of 50 mM Hepes, pH 8.5, 200 mM NaCl, 15 mM DTT, and 5% Glycerol. Purity was greater than 95% by SDS PAGE. In this system, induction was tightly regulated and successful, with 30-40% of protein production in soluble fraction. The initial yield from IMAC for dialysis was 5 mg at 1.0 mg/ml., with visible precipitation post dialysis.",
  "data": [
    {"molecule": "B1", "values": [
      {"measurement": "stability to freeze thaw cycles", "result": "stable to multiple freeze thaw cycles"}
    ]}
  ]
}
